{"source": "paper PMC4501562", "about": "“Vpu Exploits the Cross-Talk between BST2 and the ILT7 Receptor to Suppress Anti-HIV-1 Responses by Plasmacytoid Dendritic Cells” (PLoS Pathogens, 2015)", "key": {"[1]": {"target": "ILT7 on the ILT7+ NFAT-GFP reporter mouse cell line (CT550) (human) (UniProt P59901)", "sequence (P59901 24-499)": "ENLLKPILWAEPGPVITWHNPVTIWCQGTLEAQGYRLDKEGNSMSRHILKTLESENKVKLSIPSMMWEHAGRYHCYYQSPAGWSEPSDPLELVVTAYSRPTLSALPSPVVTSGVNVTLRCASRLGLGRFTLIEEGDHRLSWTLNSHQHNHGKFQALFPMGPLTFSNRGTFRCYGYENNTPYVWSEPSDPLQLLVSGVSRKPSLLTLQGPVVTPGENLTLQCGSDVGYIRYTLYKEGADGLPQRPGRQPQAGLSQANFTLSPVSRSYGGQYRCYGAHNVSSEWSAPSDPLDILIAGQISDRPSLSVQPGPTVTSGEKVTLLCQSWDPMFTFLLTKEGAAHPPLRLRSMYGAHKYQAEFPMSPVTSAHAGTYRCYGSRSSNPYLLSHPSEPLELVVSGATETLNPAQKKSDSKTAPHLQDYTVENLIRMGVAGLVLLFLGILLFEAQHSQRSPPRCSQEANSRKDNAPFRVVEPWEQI"}, "[2]": {"target": "T1, baculovirus-expressed soluble ILT7 (residues 24 to 435) (human, UniProt P59901 24-435)", "T1 construct": "immunoglobulin-like transcript 7 (ILT7, LILRA4, CD85g), human, residues 24 to 435, from a synthetic codon-optimized gene; Cloned into the transfer vector pFL and transposed into the EMBacY bacmid; also called bacILT7; LILRA4", "T1 sequence (P59901 24-435)": "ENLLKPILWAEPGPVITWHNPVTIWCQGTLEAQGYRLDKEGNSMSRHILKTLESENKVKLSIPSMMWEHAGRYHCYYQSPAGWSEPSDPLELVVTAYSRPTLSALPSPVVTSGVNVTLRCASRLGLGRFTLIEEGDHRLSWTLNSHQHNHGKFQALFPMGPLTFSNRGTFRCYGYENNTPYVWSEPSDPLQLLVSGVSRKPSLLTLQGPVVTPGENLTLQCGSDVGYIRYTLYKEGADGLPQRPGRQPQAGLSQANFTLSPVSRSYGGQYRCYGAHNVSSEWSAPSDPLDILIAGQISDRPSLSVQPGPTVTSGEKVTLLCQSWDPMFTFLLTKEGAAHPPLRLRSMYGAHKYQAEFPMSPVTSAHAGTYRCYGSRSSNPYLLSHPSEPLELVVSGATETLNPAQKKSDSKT", "assay": "SPR; Biacore 3000; GST-BST2 covalently immobilised on a CM5 chip by amine coupling (6550 RU); bacILT7 serially diluted and passed over at 10 ul/min; running buffer HBS-PE (10 mM HEPES pH 7.5, 150 mM NaCl, 3 mM EDTA, 0.005% Tween-20); GST-coated reference cell subtracted; 1:1 Langmuir model, local Rmax", "details": "both partners purified"}}, "data": [{"molecule": "WT BST2 expressed on HEK293T cells (from UniProt Q10589 1-161) (natural protein)", "values": [{"measurement": "percentage of NFAT-GFP positive ILT7+ reporter cells after co-culture with BST2-expressing HEK293T cells (no HIV)", "setting": "[1]", "value": 99, "unit": "%"}, {"measurement": "percentage of NFAT-GFP positive ILT7+ reporter cells after co-culture with BST2-expressing HEK293T cells producing WT HIV (Vpu present)", "setting": "[1]", "value": 74, "unit": "%"}, {"measurement": "percentage of NFAT-GFP positive ILT7+ reporter cells after co-culture with BST2-expressing HEK293T cells producing dU HIV (no Vpu)", "setting": "[1]", "value": 48, "unit": "%"}]}, {"molecule": "recombinant GST-tagged ectodomain of BST2 (residues 47 to 159) (domain or fragment, BST2/Tetherin (CD317), human, extracellular domain, residues 47 to 159; a region common to the short and the long BST2 isoforms; Cloned into the pBADM30 expression vector as a His-tagged GST-N-terminus fusion protein; also called GST-BST2; BST2/Tetherin; not shown: GST, N-terminal, kept) KANSEACRDGLRAVMECRNVTHLLQQELTEAQKGFQDVEAQAATCNHTVMALMASLDAEKAQGQKKVEELEGEITTLNHKLQDASAEVERLRRENQVLSVRIADKKYYPSSQD", "values": [{"measurement": "Kd", "setting": "[2]", "value": 2330, "unit": "nM"}, {"measurement": "koff", "setting": "[2]", "value": 0.00308, "unit": "s⁻¹"}, {"measurement": "kon", "setting": "[2]", "value": 1250, "unit": "M⁻¹ s⁻¹"}]}]}
